According to paper PMC5141474, “Diverse specificity of cellulosome attachment to the bacterial cell surface” (Scientific Reports, 2016):

T1: C. thermocellum ScaF Coh (type-II cohesin of anchoring scaffoldin ScaF), expressed on its own (Clostridium thermocellum, UniProt P71143 29-200)
T1 construct: single type-II cohesin of anchoring scaffoldin ScaF of Clostridium thermocellum (the Coh of PDB 2b59 and 2bm3); also called CohScaF; source: E. coli BL21 (DE3), pET28a, purified (IMAC)
T1 sequence (looked up): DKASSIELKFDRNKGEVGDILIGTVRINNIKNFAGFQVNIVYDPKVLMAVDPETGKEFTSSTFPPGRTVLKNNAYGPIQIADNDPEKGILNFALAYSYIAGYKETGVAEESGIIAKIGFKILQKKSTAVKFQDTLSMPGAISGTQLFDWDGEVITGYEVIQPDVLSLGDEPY


Legend:
Experiment in all cases: ITC; VP-ITC, 318.15 K; Doc in the cell, Coh injected (28 x 10 uL); single site-binding model; proteins in 50 mM HEPES pH 7.5, 2 mM CaCl2, 0.5 mM TCEP
[1] = biological target: C. thermocellum CipB XDoc (X-module and type-II dockerin of CipB), expressed on its own (Clostridium thermocellum) (UniProt A3DGE8)
[2] = biological target: C. thermocellum CipB XDoc F148A (Clostridium thermocellum)
[3] = biological target: C. thermocellum CipB XDoc I154A (Clostridium thermocellum)
[4] = biological target: C. thermocellum CipB XDoc M114A (Clostridium thermocellum)
[5] = biological target: C. thermocellum CipB XDoc M118A (Clostridium thermocellum)
[6] = biological target: C. thermocellum CipB XDoc S121A (Clostridium thermocellum)
[7] = biological target: T1, C. thermocellum ScaF Coh (type-II …); conditions: both partners purified

| Ka [1] | dH [1] | Ka [2] | dH [2] | stoichiometry N [2] | Ka [3] | dH [3] | stoichiometry N [3] | dH [4] | dH [5] | dH [6] | stoichiometry N [1] | Ka [4] | stoichiometry N [4] | Ka [5] | stoichiometry N [5] | Ka [6] | stoichiometry N [6] | Ka [7] | Molecule |
| --- | --- | --- | --- | --- | --- | --- | --- | --- | --- | --- | --- | --- | --- | --- | --- | --- | --- | --- | --- |
| > 1e+09 M⁻¹ | -12.4 kcal/mol | 619000 M⁻¹ | -8.83 kcal/mol | 1.01 | 1.2e+06 M⁻¹ | -9.75 kcal/mol | 1.02 | -10.4 kcal/mol | -8.66 kcal/mol | -10.3 kcal/mol |  |  |  |  |  |  |  |  | C. thermocellum ScaC2 Coh (type-II cohesin of anchoring scaffoldin ScaC), expressed on its own (domain or fragment) |
| 1.21e+07 M⁻¹ | -8.27 kcal/mol |  |  |  | 1.08e+07 M⁻¹ | -17.3 kcal/mol | 1.03 | -13 kcal/mol | -25.5 kcal/mol | -6.93 kcal/mol | 1 | 7.17e+06 M⁻¹ | 1.01 | 6.96e+06 M⁻¹ | 0.99 | 9.16e+06 M⁻¹ | 1.01 |  | C. thermocellum ScaE6 Coh (type-II cohesin of scaffoldin ScaE) (domain or fragment) |
|  |  |  |  |  |  |  |  |  |  |  |  |  |  |  |  |  |  | > 1e+09 M⁻¹ | C. thermocellum CipB XDoc (X-module and type-II dockerin of CipB), expressed on its own (domain or fragment, Clostridium thermocellum, CipB (ORF Cthe_1806, 2177 amino acids) of Clostridium thermocellum: X-module and C-terminal type-II dockerin (XDoc); numbers count on: the recombinant XDoc chain (X-module 1-98, Doc 99-164); also called XDocCipB; CipB type-II Doc; source: E. coli Tuner (DE3), pET21a, purified (IMAC)) NNDSTDKTTVSGYISVDFDYPPESESKIKSGFNVKVAGTELSTKTDEKGYFEISGIPGDMREFTLEISKRNYLKRNVTVNGTGKLVVSTEDNPLILWAGDVERKGVQDNAINMVDVMEISKVFGTRAGDEEYVAELDLNMDGAINLFDIAIVIRHFNALPSRY |
